Measured values from PMC10558804.
Values belong to the substance of their own block, whether it stands above or below them.

Experiments:
Assay in all cases: native gel or EMSA; blue native-PAGE (BN-PAGE) of membrane proteins extracted from whole-cell lysates of transfected HEK 293 cells, 10 mM n-dodecyl-β-maltoside, 4 to 16% (or 3 to 12%) Bis/Tris gels, Western blot with anti-GluA1 or anti-GluA2; AMPAR subunit expressed alone or with an auxiliary subunit (cDNA 1:1); oligomeric states (tetramer, dimer, monomer) by molecular mass; tetramer fraction from band intensities; association of an auxiliary subunit read from the upshift of the tetramer band
[1] = target: GluA1 (rat, flip splice variant), wild type (rat (Rattus norvegicus))
[2] = target: GluA1-TARP γ-2 tandem (rat (Rattus norvegicus) | rat)
[3] = target: GluA2(R) (rat, flip splice variant, edited (R) form) (rat (Rattus norvegicus))
[4] = target: GluA1(G816A) (rat (Rattus norvegicus))
[5] = target: GluA2(R)(G823A) (rat (Rattus norvegicus))
[6] = target: GluA1(G816A)-TARP γ-2 tandem (rat (Rattus norvegicus) | rat)
[7] = target: GluA1-ΔECD (GluA1 lacking the extracellular ATD and LBD) (rat (Rattus norvegicus))

- stoichiometry N [1]: 4
- tetramer fraction [1]: 0.84
Substance: GluA1 (rat, flip splice variant), wild type (receptor)

- stoichiometry N [2]: 4
Substance: GluA1-TARP γ-2 tandem

- stoichiometry N [3]: 4
- tetramer fraction [3]: 0.89
Substance: GluA2(R) (rat, flip splice variant, edited (R) form) (receptor)

- tetramer fraction [4]: 0.52
Substance: GluA1(G816A) (receptor)

- tetramer fraction [5]: 0.45
Substance: GluA2(R)(G823A) (receptor)

- stoichiometry N [6]: 4
Substance: GluA1(G816A)-TARP γ-2 tandem

- stoichiometry N [7]: 4
Substance: GluA1-ΔECD (GluA1 lacking the extracellular ATD and LBD) (domain or fragment)
